In patent US20210205413A1 (Nektar Therapeutics, priority 2018, published 2021):

Assays:
human IL-2Rβ = biological target: T1, human IL-2Rβ (Homo sapiens, UniProt P14784); test: Affinity to the IL-2 receptor by surface plasmon resonance; format: binding; details: SPR
T1 sequence (P14784 27-551): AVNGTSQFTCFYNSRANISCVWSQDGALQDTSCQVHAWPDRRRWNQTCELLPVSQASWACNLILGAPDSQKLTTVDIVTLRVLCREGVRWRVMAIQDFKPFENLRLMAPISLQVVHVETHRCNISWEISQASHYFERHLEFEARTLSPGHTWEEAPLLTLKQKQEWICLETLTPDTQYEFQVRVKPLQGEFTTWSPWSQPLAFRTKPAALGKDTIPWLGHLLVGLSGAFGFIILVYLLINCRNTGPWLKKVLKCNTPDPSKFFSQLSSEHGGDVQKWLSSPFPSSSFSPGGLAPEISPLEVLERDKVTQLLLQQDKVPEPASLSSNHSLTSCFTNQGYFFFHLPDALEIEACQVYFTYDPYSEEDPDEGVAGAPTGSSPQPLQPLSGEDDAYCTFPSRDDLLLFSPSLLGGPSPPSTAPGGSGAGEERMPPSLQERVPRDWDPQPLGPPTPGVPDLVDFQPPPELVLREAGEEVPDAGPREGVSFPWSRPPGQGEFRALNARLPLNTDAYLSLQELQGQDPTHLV
Protocol: Impaired IL-2 production and regulatory T cell dysfunctions have been implicated as an immunological mechanism in multiple autoimmune diseases. While low-dose IL-2 can be used to stimulate Tregs for clinical benefit, poor pharmacokinetics necessitates daily delivery, adverse events are dose-limiting, and Treg increases are modest and short-lived. […] The affinity to the IL-2 receptor is assessed by surface plasmon resonance. Activity in human PBMC can be measured by pSTAT5 induction in multiple lymphocyte populations using flow cytometry and time-of-flight mass cytometry (CyToF). In vivo activity after subcutaneous administration in C57BL/6 mice or cynomolgus monkey is measured by changes in lymphocyte numbers and activation by flow cytometry. Ex vivo Treg function is determined by the inhibition of Tcon proliferation by isolated splenic Treg. Efficacy is assessed in a model of systemic lupus erythematosus (SLE) using MRL/MpJ-Faslpr mice. […] In mice, a single administration leads to sustained Treg mobilization for 7-10 days in blood and spleen without Tcon activation, an effect concomitant with induction of Treg activation markers and increased ex vivo suppressive capacity. […] Finally, an RUR20kD-IL-2 composition is efficacious in mouse models of SLE.

[1] = tested on: Balb/c mice (KLH DTH model); test: Antigen dependent, T cell-mediated DTH model with KLH rechallenge; format: in vivo
Protocol: To develop the DTH model, Balb/c mice are sensitized with a subcutaneous administration of a model antigen keyhole limpet hemocyanin (KLH) emulsified in complete and incomplete Freund's adjuvant. […] Inflamed ears are subjected to immunohistochemistry (IHC) to quantify percent of FoxP3+ Treg cells post KLH challenge. The specificity of response is assessed after an additional 3-4 weeks with no treatment by either KLH rechallenge or conducting sensitization and challenge with an unrelated antigen ovalbumin (OVA). […] Post ten days of 2nd sensitization, mice are challenged with OVA eight times orally, every alternative day. […] Severity of allergic response is assessed by clinical scoring within 30-45 min of post 8th challenge. Further, serum mast cell protease 1 (MCPT 1) and OVA specific IgE titers are quantified. The percent Treg is determined by flow cytometry in peripheral blood and in spleen.

[2] = Phase I single ascending subcutaneous dose study in healthy volunteers: pharmacokinetics; format: in vivo, human; details: for AUC0-14 d / Cmax / tmax: Single Dose Study
Protocol: A double-blind, randomized, placebo-controlled study is conducted to evaluate the safety, tolerability, pharmacokinetics, and pharmacodynamics of single ascending low sub-cutaneous doses of an RUR20kD-IL-2 composition (RUR20kD-IL-2) in healthy volunteers. […] Twelve subjects are randomized to each dose cohort, nine of whom received a single subcutaneous dose of RUR20kD-IL-2 while three received placebo. […] The drug product is supplied in single-use glass vials and stored at 2-8° C. […] Placebo is a commercially available 0.9% sodium chloride solution. A starting dose of 0.3 μg/kg is chosen using the minimally anticipated biological effect level (MABEL) approach and is supported by the no observed adverse effect level (NOAEL) in the most sensitive species from nonclinical toxicology studies.
The primary objective of the study is to evaluate the safety and tolerability of RUR20kD-IL-2 administered as a single subcutaneous dose. […] In a first phase of the study, immune markers are tested pre-dose up to 20 hours post-dose. Specifically, Tregs, CD4^+-T cells, CD8^+-T cells, natural killer (NK) cells, cytokines, soluble CD25, and RNA are tested in RUR20kD-IL-2- and placebo-receiving cohorts. In subsequent phases, the same immune markers are also tested at 4-, 5-, 6-, 7-, 8-, 10-, 12-, 15-, 18-, 20-, 25-, 30-, 40, and 50-days post-dose.

NK cells = test: Single-dose PK/PD study in mice: NK cells; format: in vivo, C57BL/6 mice; details: single SC 0.3 mg/kg (highest dose), relative to vehicle control
Source text: Following administration, blood and spleen samples are collected at days 1-7 and day 10 post administration. More particularly, at each time point, blood and spleen samples are collected; samples are pooled and assessed for pharmacodynamic analysis of drug action on lymphocyte cell populations by flow cytometry (see e.g. Example 5), expressed as a fold change relative to vehicle control. In addition to changes in cell numbers, functional markers and markers of activity are quantified. Finally, plasma drug concentration is also assessed.

(1,3-bis(methoxypoly(ethylene glycol)10kDcarbamoyl)-2-propanoxy)-4-butanamide)interleukin-2) [RUR20kD-IL-2]
affinity for human IL-2Rβ relative to IL-2Ra and IL-2Rαβ complexes (human IL-2Rβ): greatly attenuated affinity
inflammatory response to KLH rechallenge ([1]; SC 0.003-0.3 mg/kg q3d, day 0 through day 8): suppressed the inflammatory response to KLH rechallenge in a dose dependent manner
FoxP3+ Treg cells in inflamed ears (IHC) ([1]; post KLH challenge): significant infiltration of FoxP3+ Treg cells
durability and specificity of suppressive effect on inflammation ([1]; re-challenge post 3-4 weeks without further administration, same and unrelated antigen (OVA)): durable and antigen-specific
AUC0-14 d ([2]; 3.0 μg/kg, Median (n = 9)): 214 ng·days/mL
Cmax ([2]; 3.0 μg/kg, Median (n = 9)): 21 ng/mL
tmax ([2]; 3.0 μg/kg, Median (n = 9)): 84 h
AUC0-14 d ([2]; 3.0 μg/kg, max): 388 ng·days/mL
Cmax ([2]; 3.0 μg/kg, max): 41 ng/mL
tmax ([2]; 3.0 μg/kg, max): 336 h
AUC0-14 d ([2]; 3.0 μg/kg, min): 143 ng·days/mL
Cmax ([2]; 3.0 μg/kg, min): 13 ng/mL
tmax ([2]; 3.0 μg/kg, min): 31.2 h
Cmax ([2]; 6.0 μg/kg, Median (n = 9)): 46 ng/mL
tmax ([2]; 6.0 μg/kg, Median (n = 9)): 120 h
AUC0-14 d ([2]; 6.0 μg/kg, max): 705 ng·days/mL
Cmax ([2]; 6.0 μg/kg, max): 70 ng/mL
tmax ([2]; 6.0 μg/kg, max): 220 h
AUC0-14 d ([2]; 6.0 μg/kg, min): 73 ng·days/mL
Cmax ([2]; 6.0 μg/kg, min): 13 ng/mL
tmax ([2]; 6.0 μg/kg, min): 48 h
Half-life ([2]; healthy volunteers, single SC dose, decline after approximately 2 weeks post-dose, preliminary): 190 to 220 h
time of maximum concentrations post-dose ([2]; healthy volunteers, single SC dose, preliminary PK analysis): 4 to 6 days
increase in NK cells (NK cells): less than 2 fold
